B1: WT 1-1 (antibody, V domains shown)
VH: QVQLQQSGTELAKPGASVKFSCKASDYTFSTYWMYWIKQRPGQGLEWIGYINPSTGHTEYNQKFKDKATLTADKSSSTAYMQLNSLTSEDSAVYYCARRYYGPFAMDYWGQGTSVTVSS
VL: EIFLTQSPAIMSASPGEKVTMTCSASSSVSYAHWYQQKSGTSPKRWIYDSSKIASGIPVRFSGSGSGTSYSLTISSMEAEDAATYYCQNWSTNPYTFGGGTKLEIKR
B2: WT 1-7 (antibody, V domains shown)
VH: QVQLQQSGTELAKPGASVKFSCKASDYTFTTYWMYWIKQRPGQGLEWIGYLNPSTGHTEYNQKFKDKATLTADKSSSTAYMQLNSLTSEDSAVYYCARRYYGPFAMDYWGQGTSVTVSS
VL: EIFLTQSPAIMSASPGEKVTMTCSASTSVSYAHWYQQKSGTSPKRWIYDSSKLASGIPVRFSGSGSGTSYSLTISSMEAEDAATYYCQNWSTNPYTFGGGTKLEIKR
B3: WT 1-4 (antibody, V domains shown)
VH: QVQLQQSGTELAKPGASVKFSCKASDYTFSTYWMYWIKQRPGQGLEWIGYINPSSGHTEYNQRFKDKATLTADKSSSTAYMQLNSLTSEDSAVYYCARKYYGPFAMDYWGQGTSVTVSS
VL: EIFLTQSPAIMSASPGEKVTMTCSASTTVSYAHWYQQKSGTSPKRWLYDSSKIASGIPVRFSGSGSGTSYSLTISSMEAEDAATYYCQNWSTNPYTFGGGTKLEIKR

One may read the Kd as a measure of binding affinity in units of concentration. The term koff denotes the rate constant with which the complex falls apart. A word on the kon: it is the rate constant with which the complex forms.

The target in the experiment is T1, CTNI质控品重组抗原 (人心肌肌钙蛋白I, cTnI) (human, UniProt P19429 1-210, limits assumed).
T1 construct: also called CTNI质控品重组蛋白
T1 sequence (P19429 whole entry): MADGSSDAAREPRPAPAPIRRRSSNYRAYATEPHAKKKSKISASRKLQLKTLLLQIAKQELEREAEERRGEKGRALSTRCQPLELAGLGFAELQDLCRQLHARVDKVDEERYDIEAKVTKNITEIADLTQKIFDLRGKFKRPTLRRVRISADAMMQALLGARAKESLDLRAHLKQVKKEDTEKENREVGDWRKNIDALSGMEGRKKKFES
The experiment can be described thus: AMC sensor (biolayer interferometry), antibody immobilised at 10 ug/ml, cTnI QC recombinant protein in serial dilution in PBST.
B1: the Kd stood at 1.43 nM, the koff turned out to be 5.51e-05 s⁻¹ and the on-rate constant (kon) was found to be 38500 M⁻¹ s⁻¹.

For the molecule B2, the Kd was 0.728 nM, the koff came to 0.000132 s⁻¹ and the association rate constant (kon) amounted to 182000 M⁻¹ s⁻¹.

As to B3, the Kd amounted to 1.04 nM, the dissociation rate constant (koff) was 3.9e-05 s⁻¹ and the on-rate (kon) amounted to 37500 M⁻¹ s⁻¹.

For the origin of these results see patent CN111018977A (DONGGUAN PENGZHI BIOTECHNOLOGY CO LTD, dated 2020).
